US10272135B2, “Apolipoprotein O and fragments thereof for inducing apoptosis in a cancerous cell” (INSERM (INSTITUT NATIONAL DE LA SANTÉ ET DE LA RECHERCHE …, priority 2014, dated 2019)

System: cyclophilin-D and/or ANT
Assay: Blue Native Page and GST pull-down with heart mitochondria protein extracts
Format: binding, mouse
Conditions: BN-PAGE and GST-ApoO pull-down (FIGS. 5A and B)
Source text: (A) One-dimensional BN-PAGE gel analysis of mitochondrial protein complexes from mouse heart. (1): Coomassie blue staining of the 4-13% polyacrylamide one-dimensional gradient blue native gel. (2): Ponceau S staining of the transferred PVDF membrane. ApoO, ANT and CypD were detected using enhanced chemiluminescence of the transferred PVDF membranes with ApoO, ANT or CypD antibodies respectively. ApoO, ANT and CypD were detected in the same complex (black rectangle).
(B) Western blot analysis of ApoO-GST pull-down. Upper panel: Ponceau S staining of the transferred membrane used to control loading and transfer. […]
After ethical committee approval, all patients in this study gave written consent for sample collection and molecular analysis prior to inclusion. […] All ApoO sequences within the expression vectors were verified by DNA double strand sequencing using ABI PRISM®BigDye™ Terminator version 3.1 Ready reaction cycle sequencing kit (Life Technologies SAS, Villebon sur Yvette) and loaded on an ABI 3130XL DNA sequencing instrument (Life Technologies SAS, Villebon sur Yvette). […]

B1: ApoO: 198-amino acid apolipoprotein, SEQ ID NO: 1; tested by overexpression from expression vectors or transgene (protein, listed as Homo sapiens)
chain: MFKVIQRSVGPASLSLLTFKVYAAPKKDSPPKNSVKVDELSLYSVPEGQSKYVEEARSQLEESISQLRHYCEPYTTWCQETYSQTKPKMQSLVQWGLDSYDYLQNAPPGFFPRLGVIGFAGLIGLLLARGSKIKKLVYPPGFMGLAASLYYPQQAIVFAQVSGERLYDWGLRGYIVIEDLWKENFQKPGNVKNSPGTK
With B1 the “interaction with cyclophilin-D and/or ANT” value was “interaction”.
